Reference: the RNAGym collection of RNA variant scans (doi:10.7554/elife.80360)

B1: HDV Ribozyme (parent)
chain: GGCCGGCAUGGUCCCAGCCUCCUCGCUGGCGCCGGCUGGGCAACAUUCCGAGGGGACCGUCCCCUCGGUAAUGGCGAAUGGGACCCA

Variants of: B1
Assay: self-cleavage, relative activity (ratio to wild type); higher = more cleavage; co-transcriptional
For GGCCGGCAUGGUCCCAGCCUCCUCGCUGGCGCCGGCUGUGCAACAUUCCGACGGGACCGUCCCCUCGGUAAUGGCGAAUGGGACCCA, the self-cleavage was 0.831.
GGCCGGCAUGGUCCCAGCCUCCUCGCUGGCGCCGGCUGGGCAACACUCCGAGGGGACCGUCCCCUCGGUAAUGCCGAAUGGGACCCA gave a self-cleavage of 0.277.
GGCCGGCAUGGUCCCAGCCUCCUCGCUGGCGCCGACUGGGCAACAUUCCGAGGGGACCGUCCCCUCGGUAAUGGCGAAUGGGCCCCA gave a self-cleavage of 0.0692.
Variant GGCCGGCAUGGUCCCAGCCUCCACGCUGGCGCCGGCUGGGCAACAUUCCGAGGGGACCGUCCCCUCGGUAAUGGCGAAUCGGACCCA has a self-cleavage of 0.101.
GGCCGGCAUGGUCCCAGGCUCCUCGCUGGCGCCGGCUGGGCAACAUUCGGAGGGGACCGUCCCCUCGGUAAUGGCGAAUGGGACCCA showed a self-cleavage of 0.0723.
Work on GGCCGGCAUGGUCCCAGCCUCAUCGCUGGCGGCGGCUGGGCAACAUUCCGAGGGGACCGUCCCCUCGGUAAUGGCGAAUGGGACCCA yielded a self-cleavage of 0.0437.
With GGCCGGCAUGGUCCCAGCCUCCUCGCUGGCGCCUGCUGGGCAACAUUCCGAGGGGACCGUCCCCUCGAUAAUGGCGAAUGGGACCCA the self-cleavage was 0.274.
For GGCCGGCUUGGUCCCAGCCUCCUCGCUGGCGCCGGCUGUGCAACAUUCCGAGGGGACCGUCCCCUCGGUAAUGGCGAAUGGGACCCA, the self-cleavage was 0.571.
GGCCGGCAUGGUCCCAGCCUCCCCGCUGGCGCCGGCUGGGCAACAUUCCGAGGGGACCGUCCGCUCGGUAAUGGCGAAUGGGACCCA gave a self-cleavage of 0.813.
GGCCGGCAUGGUCUCAGCCUCCUCGCUGGCGCCGGCUGGGCAACAAUCCGAGGGGACCGUCCCCUCGGUAAUGGCGAAUGGGACCCA gave a self-cleavage of 0.554.
With GGCCGGCAUGGUCCCAGCCUCCUCGCUGGCGCCGGCUGGGCAACAUUCCGAGGGGACCGUCCCCUCGGUAAUGGCGAAUGCGCCCCA the self-cleavage was 0.222.
GGCCGGCAUGGUCCCAGCCUCCUCGCUGCCGCCGGCUGGGCAACAUUCCGAGGGGACCGUCCCCUCGGUAAUGGCGAAUGGGACUCA showed a self-cleavage of 0.108.
Variant GGCCGGCAUGGUCCCAGCCUCCUCGCUGGCGCCGGCUGGGCAACACUUCGAGGGGACCGUCCCCUCGGUAAUGGCGAAUGGGACCCA has a self-cleavage of 0.655.
Variant GGCCGGCAUGGUCCCAGCCUCCUCGUCGGCGCCGGCUGGGCAACAUUCCGAGGGGACCGUCCCCUCGGUAAUGGCGAAUGGGACCCA has a self-cleavage of 1.29.
GGCCGGCCUGGUCCCAGCCUCCUCGCUGGCGCCGGCUGGGCAACAUUCCGAGGGGACCGUCCCCUCGGUAAUGGCGUAUGGGACCCA showed a self-cleavage of 0.356.
For GGCCGGCAUGGUCCCAGCCUCCUCGCUGGCGCCGGCUGGGCAACAUUCUGAGGGGACCGUCCCCUCGGUAAUGGCGAAUGGGACCGA, the self-cleavage was 1.16.
With GGCCGGCAUGGUCCCAGCCUCUUCGCUGGCGCCGGCUGGGCAACAUUCCGAGUGGACCGUCCCCUCGGUAAUGGCGAAUGGGACCCA the self-cleavage was 0.61.
With GGCCGGCAUGGUCCCAGCCUCCUCGCUGGCGCCGGCUGGGCAACAUUCCGAGGGGACCGCCCCCUCGGUAAUGGCGAAAGGGACCCA the self-cleavage was 1.23.
Work on GGCCGGCAUGGUCCCAGCCUCCUCGCUGGCGCCGGCUGGGCGACAUUCCAAGGGGACCGUCCCCUCGGUAAUGGCGAAUGGGACCCA yielded a self-cleavage of 0.446.
GGCCGGCAUGGUCCCAGCCUCCUCGCUGGCGCCGGCUGGGCAACAUACCUAGGGGACCGUCCCCUCGGUAAUGGCGAAUGGGACCCA showed a self-cleavage of 1.18.
GGCCGGCAUGGUCCAAGCCUCCUCGCUGGCGCCGGCUGGGCAACAUUCCGAGGGGGCCGUCCCCUCGGUAAUGGCGAAUGGGACCCA showed a self-cleavage of 0.587.
Work on GGCCGGCAUGGUCCCAGCCUCCUCGCUCGCCCCGGCUGGGCAACAUUCCGAGGGGACCGUCCCCUCGGUAAUGGCGAAUGGGACCCA yielded a self-cleavage of 0.
GGCCGGCAUGGUCCCAGCCGCCUCGCUGGCGCCGGCUGGGCAACAUUCAGAGGGGACCGUCCCCUCGGUAAUGGCGAAUGGGACCCA gave a self-cleavage of 0.308.
Work on GGCCGGCAUGGUCCCAGCCUCCUCGCUGGCGCCGGCUGGGCAACAUUCCGAGGGGACCGUCCCCUCGGUAACAGCGAAUGGGACCCA yielded a self-cleavage of 0.407.
Variant GGCCGGCAUGGUCCGAGCCUCCUCGCUGGCGCCGGCUGGGCAACAUUCCGACGGGACCGUCCCCUCGGUAAUGGCGAAUGGGACCCA has a self-cleavage of 0.95.
Work on AGCCGGCAUGGUCCCAGCCUCCUCGCUGGCGCCGGCUGGGCAACAUUCCGAGGGGACCGUCCCCUCGGUAAUGACGAAUGGGACCCA yielded a self-cleavage of 0.0287.
GGCCGGCAUGGUCCCAGCCUCCUCGCUGGCGGCGGCUGGGCAACAUUCCGAGGGGACCGGCCCCUCGGUAAUGGCGAAUGGGACCCA showed a self-cleavage of 0.196.
Work on GGCCGACAUGGUCCCAGCCUCCUCGCUGGCGCCGGCUGGGCAGCAUUCCGAGGGGACCGUCCCCUCGGUAAUGGCGAAUGGGACCCA yielded a self-cleavage of 0.277.
GGCCUGCAUGGUCCCAGCCUCCUCGCUGGCGCCGGCUGGGCAACAUUCCGAGGGGACCGUCCCCUCGGUAAUGGCAAAUGGGACCCA showed a self-cleavage of 0.391.
GGCCGGCCUGGUCCCAGCCUCCUCGCUGGCGCCGGCUGGGCAACAUUCCGAGGGGACCGUCCCCUCGGUAAUGGCGAAUGGGACCCC showed a self-cleavage of 0.805.
GGCCGGCAUGGUCCCAGCUUCCUAGCUGGCGCCGGCUGGGCAACAUUCCGAGGGGACCGUCCCCUCGGUAAUGGCGAAUGGGACCCA gave a self-cleavage of 0.0791.
Variant GGCCGGCAUGGUCCCAGCCUCCUCGCUGGCGCCGGCUGGGCAACAUUCCGAGGGGACCGUGCCCUCGGUAAUGGCGAAUGGGGCCCA has a self-cleavage of 0.567.
